Results from the DeepSol protein solubility set.

Assay: soluble on expression in E. coli; label from the status in PepcDB or PDB records

Sequence | soluble on expression in E. coli
MSLTYLNHILVIEDDLDAAESLSDMLSIDGFQITTTASVQDAMELLESQRFGVILTDRHLPDGLIEHRLQEILEVSSKTPVIVVTGYSDLQAVILAFRQGISDYVIKPIIPEDLIQTVRRILERRVLEQHLQIEHAFAERIQSTAEAIILVIDFDGRVIHFNRFFTELTGWAQGDLIGENWFDRCIYPEDRDRLINVCDTMSRTDRYRGCTNRIRCKNGEAREIRWSNSKWSEADGGQQFILAIGIDVSDLAEATQRAVRAERLAAIGETVAALAHESRNAIQRINAASEVLAINIRGNVDSEEELSVVQRAASDLSTLLESVRAFAAPIQAKLECADLREIWRRSWDDLECKRSGRDVELVENATSCLHDVKVDVCRMEQLFRNLFLNALEASEGPVRIEIDCECNDEMVCLKVTDDGPGLTAEQSAHLFEPFYTTKPTGTGLGMPICQRIVEAHGGTIAAGNHLNGTEVAICVPRVKAAVLVSEGHHHHHH | soluble
MSLIEIESRELADIPVLHAYPVGQKDTPLPCVIFYHGFTSSSLVYSYFAVALAQAGLRVIMPDAPDHGSRFSGDAARRLNQFWQILLQSMQEFTTLRAAIAEENWLLDDRLAVGGASMGAMTALGITARHPTVRCTASMMGSGYFTSLARSLFPPLIPETAAQQNEFNNIVAPLAEWEATNHLEQLSDRPLLLWHGLDDDVVPADESLRLQQALSETGRDKLLTCSWQPGVRHRITPEALDAAVTFFRQHLEGGSHHHHHH | soluble
NVLYENQKQIANQFNKAISQIQESLTTTSTALGKLQDVVNQNAQALNTLVKQLSSNFGAISSVLNDILSRLDKVEAE | soluble
MGSDKIHHHHHHMKRFNIIITLSATLGLFSCELDKMPMDQVSDAVFWQKPADFELAANDFYFGLQEVSQYIDMNSDIAFGSGTNDVSDGSYLAPVNSDDWDNPWKFVQSTSYLLKKAEESGLSDEEIGRWKAEAHFFRAYNYWKLVKTYGGVPKIDIPLNTSSEELYTPRSSQQEIIDFIIEDLDKAIPLLPKQSGLTAEELGRTTQGAALALKARAALFEGTWQKYHGMADAGKYLDLAIQAAQAIVDSKEYELYREKGELSYKYLHILEGDDSKEVLLARRYYKLRATHNWTRELLLGAMVPTKNLADVYLCTDGLPIDKSKLFKGFQTQTSEFENRDSRMAQTFVVPGSEIFSEGGGWATVEPGFIGNNSTRTGYMIRKFMDETLDAVQFIGEYDFKEFRYGEVLLILAEALYEKNGQITDEQLDLTINDLRNRANMPRLTNAFVATNGLNMQEEIRRERTVELAFEGYRRDDLRRWGTAETVLPLAIRGVKFVGTEYQQKFPELVIGQDIQVDSEGFIIAQPASARKFQTPKHWLSPIPLQQVQLSKGTLEQNPGW | not soluble
MKTVTEFQNKNILVLGIAKSGYAAATLLQKLGANVIVNDGKPLAENVLAAELQAKGMDVVCGGHPLELLERNISLVVKNPGIPYSNPILVAAKEKQIPIVTEVELAYRISEAPFVGITGSNGKTTTTMLTFEMLKEGQKHPVIAGNIGTVACEVAQDAKENEVVVTELSSFQLMGVELFQPKIAAFLNLFEAHLDYHGTKKEYGLAKANIFKNQTENDYSVINADDADVMALSAYSKGQKVLFSTTKEIEDGACIKDNALYFKAEKVVEVDDIVLPGQHNLENILAAMSIAKLLGVSNEAITAVLKRFTGVKHRLEYVTTINNRKFYNDSKATNMLATEKALSAFTQPTVLLAGGLDRGNEFDDLIPYFKNVKAIVTFGQTAPKLVRAAEKAGLDTIESVDTLDEAVVKAYAHSTDGDVILLSPACASWDQFKTFEERGDIFIQAVHKLI | not soluble
QLKNNAAIQIDRVDNTEITETVSFDAEPTYVDDPEAPAGDETVVEEGAPGTKEVTRTVTTVNGQEESSTVINEVEITAAKPATISRGTKT | not soluble
MGSDKIHHHHHHMRRRHVGVGAELTAFRILAAISCERLFWETGSRNQAVKTRAESANREISMIRTAMIAATALAASLAASAPAFAADVVGLWATPGNGGQVEISRCGNSLCGKLVTSDHIKTNPGLKDIKNKDESQRSRTLKNLQMLYDFSGGPTKWTGGKVYNPEDGGVYAGTIELVSTTELKLKGCVVAPLCKTQKWTRIR | not soluble
MVRIEVIDIEKPEGVEVIIGQGNFSIFTVDDLARALLTAVPGIKFGIAMNEAKPQLTRYTGNDPELEALAAKNAVKIGAGHVFVILMKNAYPINVLNTIKNHPAVAMIYGASENPFQVIVAETELGRAVIGVVDGKAANKIETDEQKKERRELVEKIGYKID | soluble
MKDKQLRLRIYRSAFSSMKNAIVEKAREFGVPVILVDPSYTSSICPVHGSKIIYQPDGGSAPRVGVCGKGGERWHRDVVALYNLRKRAGDVLEHHHHHH | not soluble
PSTVPIMHQVSATMRSITLSWPQPEQPNGIILDYEIRYYEKEHNEFNSSMARSQTNTARIDGLRPGMVYVVQVRARTVAGYGKFSGKMCFQTLTD | soluble
MSLTADPPACTVPAAGGASTHKLVNAGAEKMIFKIKSSNNNEYRITPVFGFVDPSGSKDITITRTAGAPKEDKLVVHFAAAPADATDAQAAFAAITPAGTITIPMSATA | soluble
MDHRAQAREVFVRAQLEAVQKAITKNEVPLKPKHARTIIVGTHKEKSSGIFWHTVGRIQLEKHPVLTWKFCHLVHKLLRDGHRKVPEETYRYVNRFTQLSQFWKHLNTSGYGPCIESYCKLLHDRVTFHNKYPVVPGKLDLNDSQLKTLEGDLDNMFEMTIDMLDQMDALLVLQDRVYEMMNSLRWNSLIPQGQCMLSPLIIAILDTSKFYDYLVKMIFKLHSQVPPDALEGHRSRFRTIFERTKKFYEESSNLQYFKYLVSIPTLPSHAPNFLQQSDLESYRTPHAYLHSEGSEDGTSLNGHDGELLNLAEAEPQQASPSSQPDPREEQIVMLSRAVEDEKFAKERLIQEARSRIEQYENRLLQMQGEFDHAKREADENREEAQRLKNELALRDASRTQTDDARVKEAELKATAAEERFNKMKGVYEKFRSEHVLALTKLGDIQKQLEASEKSKFDKDEEITALNRKVEEAQREAGRALTKAEGDAGAVDEMRTQLVKADIEVEELKRTIDHLRESHANQLVQSSAEETNKIRLAELEVAKESGVGITQMFDHCEDALQNATSITYPPHLAQSAMNNLVNILSNERLDEPLATKDNVFAGHLLSTTLSAAASAAYTASIESYEGVNDQCKKVLAAAKVAFSDDSALSRADKMKLLRQDIQTLNSLMISLPLQTDIDKDVVGNELEQEMRRMDDAIRRAVQEIEAIQRRARESSDGIRLEVNESILANCQALMSVIMQLVIASRELQTEIVAAGKAGGSPAEFYKRNHQWTEGLLSAAKAVGVAARVLVESADGVVTGKGKFEHLIVAAQEIAASTAQLFVSSRVKADKDSSKLDALSVAAKAVNQNTAQVVAAVKNGQTTLNDEGSLDFSYLSLHAAKKEEMESQVKMLELEQSLNQERAKLAALRKQHYHMAQLVANKEGEEAQE | not soluble
MRQGFPYARPGQVIGLFGGSFDPPHAGHVHVTREALKMFGLDRVWWLVTPGNPLKAHGPAPLDRRMEAARAMMRHPRVDVTDIEAHLGTRVTADTIAALRRIYPRVRFVWLMGADNLAQLHRWKDWRQIIETVPVGVLARPGDRISARMSPAARAYAPYRIDGQARHLLGRAEAPAWCFVNVPMVDVSSTRIRAAGGWSAAQQGRGQTGTQDQ | not soluble
MGSDKIHHHHHHMVKVSIICTNYNKGSWIGEAIDSFLKQETSFPYEIIIVDDASTDHSVHIIKTYQKQYPDLIRAFFNQENQGITKTWSDICKKARGQYIARCDGDDYWIDPFKLQKQIDLLETSPESKWSNTDFDMVDSKGNIIHKDVLKNNIIPFMDSYEKMLALKGMTMASTWLVETKLMLEINDRINKDAVDDTFNIQLELFKKTKLAFLRDSTTVYRMDAESDSRSKDSEKLAQRFDRLLETQLEYIEKYPDSDYKKVLEYLLPKHNDFEKVLAQDGKNVWDNQQITIYLAKGDDQEFSEENCFQFPLQHSGNIQLTFPENIRKIRIDLSEIPSYYRQVSLVNTTVNTELLPTWTNAKVFGYSYYFIAPDPQMIYDLTAQEGQDFKLTYEWFNVDRPSQPDFLANHLVKELDQKKVELKMLSPYKYQYQKAVAERDLYLEQLNEMVVRYNSVTHSRRWTIPTKIINLFRRKK | not soluble
MGLAQSHSRTPSRDPLPNDHQVMDVYEESGPRRGRKRKAAKGSEIEMKKVAKLNTCAYVYQKLFLQGENSDIVLAACGREWRVHKLYLKQTKFFESMFDGLWTESNSGRVQMEITDPNIDADGLNSVLGSLYHNEIEIDLDKIEGTVAAASYIVLDSVTDRCSEMMIEALSTKNAVRFYDVSTKYGLEKVREKSMEVLLHQFWKIMTDREKLNEVDRQLFVTLLNSPNLLIIEGEFDLYKVVKSWIYMREVPDCCKDDSPETFTQNASKFFKESKTSMFIKYADIFASLRIEQFLTCSETIKTVKSDALIPLSIVDEMTSALWSSLLENEESPKTLEMDDDEFFKRCIRLGRSLDSFPKCWRWIGFNFGVDLLLHVNDYSVCIKRNCLNQKAPYSVNLKSKHVLHYRLVICDSNGQILYDSGKTTWEMKPDEARTIYRMSEDLATQISVHFQYLIHQPICSTGHYVNKYLDDQNSTDDEDDEEEEDDDGDDEEDSS | not soluble
MERMRSIWKGSIAFGLVNVPVKVYSATEDHDIRFHQVHAKDGGRIKYNRVCSECGNVVQYADIDKAYDSDDGVRVVLTDDDFGKLPAAEKHEIPVLQFVPTEQIDPILFEKSYFLEPDSSSPKAYVLLATALENSDRTALVHFTLRQRTRLAAMRSRDGVLVIQTLLWPDEVRVAEFSSLDGVDK | not soluble
MCMEKFYKVGTIVNTQGLQGEVRVMPSTDFAQERFSKGSVLALFDDKDNYIQDLKVKSGRPQKNFYVVKFEGFYHINDVEKYKGYIVKIAEENQEDLDDGEFYYHEIIGSDVYENDILIGQISEILQPGANDVWVVKRKGKRDLLLPYIPPVILNVDVNQHRVDVSIMEGLDDLEHHHHHH | soluble
MRKICCLLFAVFILCISASCYQRKETRISQPVIMPAIQSPEDIDDYIGEKGYEILESKGKTEEYTLDKKRVYNNWQIWAVQYPEPDHYLGKEISIYSYIIRNHPLDDKSPNKKTYLSVMICENTIIGGYSSPYYEEKDISLVPIGGVYSLEGKNFEEIKNINFDRWRKRFIKKYE | not soluble
MGSDKIHHHHHHMDAKTIIENRFQSQKLIQTAWSDSPERIVFHFGAMQSQNYGQSLWAVGSRMTTPSEESVEQAINNGEIIRTWLLRGTIHLFSAKDYHWMMDLIAPTIDKICKPYRAKLGLTDEVLHKATEVVSEIVSEQAVTRKDLAAHLATKDLPSAGIPFAQLLVYLSSRKVICSGPNETFRNTMHIPADTNHFTREEAIKELAKRYIQSHAPATLKDFCFWSGLTVTDAKIGLADMPKMGDYYITTLVENGTMPTTIPLAGFDEWIIGYRDRSVVLPEIWHDEIMTKNGIFRPAIITEGKVVGKWEKPKKRAELDGDFWDRYIQFRNML | not soluble
MLLYMRFTENFERAKKEALMSLEIALRKGEVDEDIIPLLKKINSIENYFTTSSCSGRISVMEMPHFGDKVNAKWLGKWHREVSLYEVLEAIKKHRSGQLWFLVRSPILHVGAKTLEDAVKLVNLAVSCGFKYSNIKSISNKKLIVEIRSTERMDVLLGENGEIFVGEEYLNKIVEIANDQMRRFKEKLKRLESKINALNR | soluble
